Measured values from patent EP4703377A1.

Legend:
H3 LAH [1] = molecular target: H3 LAH
H3 LAH [2] = assay: ELISA on H3 LAH at 15.625 ng/mL clone 5
[3] = molecular target: Recombinant HA antigen H10, A/mallard/Interior Alaska/10BM01929R0/2010 (H10N7) (influenza A virus A/mallard/Interior Alaska/10BM01929R0/2010 (H10N7)); assay: ELISA on plate-coated recombinant HA; AUC of the absorbance (490 nm) curve
[4] = molecular target: Recombinant HA antigen H11, A/northern shoveler/Netherlands/18/1999 (H11N9) (influenza A virus A/northern shoveler/Netherlands/18/1999 (H11N9)); assay: as above
[5] = molecular target: Recombinant HA antigen H6, A/mallard/Sweden/81/2002 (H6N1) (influenza A virus A/mallard/Sweden/81/2002 (H6N1)); assay: as above
[6] = molecular target: Recombinant HA antigen H3, A/Hong Kong/1/68 (H3N2) (influenza A virus A/Hong Kong/1/68 (H3N2)) (UniProt Q91MA7); assay: as above
[7] = molecular target: Recombinant HA antigen H18, A/flat-faced bat/Peru/033/2010 (H18N11) (influenza A virus A/flat-faced bat/Peru/033/2010 (H18N11)); assay: as above
[8] = molecular target: Recombinant HA antigen H9, A/guinea fowl/Hong Kong/WF10/99 (H9N2) (influenza A virus A/guinea fowl/Hong Kong/WF10/99 (H9N2)); assay: as above
[9] = molecular target: Recombinant HA antigen H15, A/shearwater/Australia/2576/1979 (H15N9) (influenza A virus A/shearwater/Australia/2576/1979 (H15N9)); assay: as above
[10] = molecular target: Recombinant HA antigen H12, A/mallard/Interior Alaska/7MP0167/2007 (H12N5) (influenza A virus A/mallard/Interior Alaska/7MP0167/2007 (H12N5)); assay: as above
[11] = molecular target: Recombinant HA antigen A/Anhui/1/2013 (H7N9) (influenza A virus A/Anhui/1/2013 (H7N9)); assay: as above
[12] = molecular target: Recombinant HA antigen H4, A/duck/Czechoslovakia/1956 (H4N6) (influenza A virus A/duck/Czechoslovakia/1956 (H4N6)) (UniProt P19696); assay: as above
[13] = molecular target: Recombinant HA antigen H17, A/little yellow-shouldered bat/Guatemala/060/2010 (H17N10) (influenza A virus A/little yellow-shouldered bat/Guatemala/060/2010 (H17N10)); assay: as above
[14] = molecular target: Recombinant HA antigen H8, A/mallard/Sweden/24/2002 (H8N4) (influenza A virus A/mallard/Sweden/24/2002 (H8N4)); assay: as above
[15] = molecular target: Recombinant HA antigen H5, A/Laos/JP127/2004 (H5N1) (influenza A virus A/Laos/JP127/2004 (H5N1)); assay: as above
[16] = molecular target: Recombinant HA antigen H13, A/black-headed gull/Sweden/1/1999 (H13N6) (influenza A virus A/black-headed gull/Sweden/1/1999 (H13N6)); assay: as above
[17] = molecular target: Recombinant HA antigen H14, A/mallard/Astrakhan/263/1982 (H14N5) (influenza A virus A/mallard/Astrakhan/263/1982 (H14N5)); assay: as above
[18] = molecular target: Recombinant HA antigen H2, A/Japan/305/57 (H2N2) (influenza A virus A/Japan/305/57 (H2N2)) (UniProt P03451); assay: as above
[19] = molecular target: Recombinant HA antigen H16, A/black-headed gull/Sweden/5/99 (H16N3) (influenza A virus A/black-headed gull/Sweden/5/99 (H16N3)); assay: as above
[20] = molecular target: Recombinant HA antigen H1, A/South Carolina/1/1918 (H1N1) (influenza A virus A/South Carolina/1/1918 (H1N1)) (UniProt Q9WFX3); assay: as above
[21] = molecular target: Recombinant HA antigen A/Narita/1/2009 (H1N1pdm09) (influenza A virus A/Narita/1/2009 (H1N1pdm09)); assay: as above

B1: Clone 5 (antibody, V domains shown)
VH: QVQLQESGPGLVKPSETLSLTCTVSGVSMNSNHWSWIRQAPGKELEWIGYIYYTGKTFYNPSLQSRVTVSLDTSKNQFYLKLTSVTAADTAVYYCARRAMASVQRGILRVFDLWGQGKMVTVSS
VL: DIQMTQSPSTLSASVGDRVTITCRASQIIDKWLAWYQHKPGKAPKLLIYEASNLETGVPSRFSGSGSGTEFTLTISSLQPDDFATYFCQQYKSYLPYTFGQGTKLEIK
titer (H3 LAH [1]): 0.92 AU/mL
absorbance (H3 LAH [2]): 0.877 absorbance

B2: Clone 6 (antibody, V domains shown)
VH: QVQLEQSGAEVKKPGSSVKVSCKASGPMFSRSAFSWVRQAPGQGLEWMGRIIPTVDLKNYAQKFQGRVTFTADKSTATSYMELRSLKSEDTAVYYCARMGSGSSYYGMDVWGLGTTVTVSS
VL: DIVMTQSPLSLPVIPGEPASISCRSSQSLLQSNGNNYLDWYLQKPGQSPQLLIYLGSNRASGVPDRFSGSGSGTDFTLTISRVEAEDVGVYYCLQARQSSVLTFGGGTKLEIK
AUC value [3]: 3330
AUC value [4]: 757
AUC value [5]: 2800
AUC value [6]: 3300
AUC value [7]: 3240
AUC value [8]: 632
AUC value [9]: 3360
AUC value [10]: 98.5
AUC value [11]: 3320
AUC value [12]: 3310
AUC value [13]: 3370
AUC value [14]: 474
AUC value [15]: 3240
AUC value [16]: 117
AUC value [17]: 3360
AUC value [18]: 3310
AUC value [19]: 290
AUC value [20]: 3360
AUC value [21]: 2480

B3: Clone 7 (antibody, V domains shown)
VH: QVQLQESGPGLVKPSETLSLTCSVSGGPLTSSTYFWGWIRQPPGKGLEWLGSINFRGTTDNAPSLKSRVTLSIDTSTHQFSLRLSSVTAKDTAVYYCARHTQRLTVFTVVHGFDLWGQGTVVSVSS
VL: QSALTQPASVSGSPGQSITISCTGATGDIGVSDFVSWYQQHPGKAPKLIIFDVTNRPSGVSNRFSGSKSVNTASLTISGLQAEDEADYYCCLYSTRSRDWEFGGGTKLTVL
AUC value [3]: 3220
AUC value [4]: 300
AUC value [5]: 3220
AUC value [7]: 3160
AUC value [8]: 3240
AUC value [9]: 3270
AUC value [10]: 3340
AUC value [11]: 3260
AUC value [12]: 3250
AUC value [13]: 3350
AUC value [14]: 3320
AUC value [15]: 3290
AUC value [16]: 1560
AUC value [17]: 3320
AUC value [18]: 3300
AUC value [19]: 3200
AUC value [20]: 3320
AUC value [21]: 3350
